Measured values as given in patent US10864251B2, “Peptides of syndecan-1 for inhibiting angiogenesis” (Wisconsin Alumni Research Foundation, priority 2006, dated 2020).

Columns and labels:
[1] = tested on: B82L fibroblasts; conditions: B82L cells; McQuade et al., 2006; read-out: IC50, recognition of VN; cited from earlier work
[2] = biological target: T1, syndecan-1 association with the αvβ3 integrin (Homo sapiens, UniProt P05106+P06756); test: Co-immunoprecipitation of αvβ3 integrin with syndecan-1 from MDA-MB-231 cells; assay type: binding
T1 construct: endogenous in cells; host or cells: MDA-MB-231 human mammary carcinoma cells (some also transfected with mouse syndecan-1 constructs)
Excerpt: (§1) FIGS. 8A-8D—SSTN disrupts association of syndecan-1 with the αvβ3 and αvβ5 integrins. (FIG. 8A) Diagram of mouse syndecan-4 (mS4), human syndecan-1 (hS1) and mouse syndecan-1 (mS1) and mS1 deletion mutants showing which proteoglycans are able to activate the αvβ3 and αvβ5 integrins. (FIG. 8B) Flow cytometry of human aortic endothelial cells (HAEC), human dermal microvascular endothelial cells (HMEC-1) or mouse aortic endothelial cells (MAEC) using human or mouse-specific antibodies for syndecan-1, αvβ3, and αvβ5. The β5 subunit is detected by Western blot in mouse cells and is compared to B82L fibroblasts known to express this integrin; (FIG. 8C) Human syndecan-1 is immunoprecipitated from HMEC-1 cells in the presence or absence of 30 μM GST, 30 μM GST-mS1ED (mouse syndecan-1 ectodomain), or 1 μM SSTN and detected on blots along with co-precipitating β3 or β5 integrin. (FIG. 8D) Human syndecan-1 is immunoprecipitated from MDA-MB-231 human mammary carcinoma cells expressing full-length mouse syndecan-1 (F1-mS1), a mouse mutant bearing deletion of amino acids 67-121 (mS1^Δ67-121), or vector alone (NEO) and blotted for the co-precipitation of the αvβ3 integrin by detection of the β3 subunit. […]

[3] = tested on: syndecan-1 association with the αvβ3 and αvβ5 integrins; test: Co-immunoprecipitation of β3/β5 integrin with syndecan-1 from HMEC-1 cells; assay type: binding, human; conditions: HMEC-1, 30 μM GST-mS1ED or 1 μM SSTN
Excerpt: as §1

T1 sequence (P06756 31-889 limits assumed): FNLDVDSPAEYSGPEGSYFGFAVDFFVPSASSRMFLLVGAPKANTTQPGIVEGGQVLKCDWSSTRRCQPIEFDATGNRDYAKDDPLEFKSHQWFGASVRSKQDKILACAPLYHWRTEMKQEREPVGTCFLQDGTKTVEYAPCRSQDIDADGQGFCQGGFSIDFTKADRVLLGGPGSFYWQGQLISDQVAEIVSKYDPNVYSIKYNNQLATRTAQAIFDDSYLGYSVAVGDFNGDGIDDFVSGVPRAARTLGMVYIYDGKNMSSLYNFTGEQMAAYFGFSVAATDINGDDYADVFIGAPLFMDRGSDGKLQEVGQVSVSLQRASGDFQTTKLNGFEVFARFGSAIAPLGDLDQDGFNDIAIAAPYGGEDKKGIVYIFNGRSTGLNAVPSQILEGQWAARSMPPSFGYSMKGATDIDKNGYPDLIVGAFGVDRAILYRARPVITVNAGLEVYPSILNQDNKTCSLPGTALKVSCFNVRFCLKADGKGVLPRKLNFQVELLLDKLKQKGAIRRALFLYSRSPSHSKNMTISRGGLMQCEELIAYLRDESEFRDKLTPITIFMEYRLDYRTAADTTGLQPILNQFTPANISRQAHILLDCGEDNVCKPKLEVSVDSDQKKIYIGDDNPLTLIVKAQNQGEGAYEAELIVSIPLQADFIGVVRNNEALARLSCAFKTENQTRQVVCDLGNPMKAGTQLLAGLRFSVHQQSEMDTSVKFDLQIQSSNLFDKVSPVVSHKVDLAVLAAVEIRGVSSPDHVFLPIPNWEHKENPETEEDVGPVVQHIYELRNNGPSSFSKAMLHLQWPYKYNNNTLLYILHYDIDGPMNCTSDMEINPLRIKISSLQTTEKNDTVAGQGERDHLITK
T1 sequence (P06756 891-1048 limits assumed): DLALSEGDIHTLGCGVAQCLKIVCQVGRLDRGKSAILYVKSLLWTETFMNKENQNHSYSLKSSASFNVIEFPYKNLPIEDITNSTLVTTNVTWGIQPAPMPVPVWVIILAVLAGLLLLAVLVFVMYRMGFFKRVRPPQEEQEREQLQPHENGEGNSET
T1 sequence (P05106 27-788): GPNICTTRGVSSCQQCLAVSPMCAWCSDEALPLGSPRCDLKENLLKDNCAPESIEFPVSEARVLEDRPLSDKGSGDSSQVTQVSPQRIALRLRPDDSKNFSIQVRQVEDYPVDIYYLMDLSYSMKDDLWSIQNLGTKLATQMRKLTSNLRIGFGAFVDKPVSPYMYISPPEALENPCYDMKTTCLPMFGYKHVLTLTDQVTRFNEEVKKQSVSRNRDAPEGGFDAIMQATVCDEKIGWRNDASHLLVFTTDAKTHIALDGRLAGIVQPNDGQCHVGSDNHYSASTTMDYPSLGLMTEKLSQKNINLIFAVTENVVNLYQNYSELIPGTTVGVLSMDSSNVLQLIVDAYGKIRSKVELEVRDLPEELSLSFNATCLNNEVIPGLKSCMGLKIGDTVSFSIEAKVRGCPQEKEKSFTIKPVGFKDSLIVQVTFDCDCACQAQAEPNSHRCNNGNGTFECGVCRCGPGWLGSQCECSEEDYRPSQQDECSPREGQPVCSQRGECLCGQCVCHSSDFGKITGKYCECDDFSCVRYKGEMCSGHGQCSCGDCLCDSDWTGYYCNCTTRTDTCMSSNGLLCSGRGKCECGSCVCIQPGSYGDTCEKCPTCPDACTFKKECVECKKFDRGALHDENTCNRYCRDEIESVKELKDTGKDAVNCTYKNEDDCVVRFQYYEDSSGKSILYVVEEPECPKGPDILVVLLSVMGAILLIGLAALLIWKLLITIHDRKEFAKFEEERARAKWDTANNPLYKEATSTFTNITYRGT

B1: S1ED: recombinant mouse Sdc1 ectodomain (amino acids 18-251), expressed in bacteria as GST fusion or 6×His-tagged protein (protein)
chain: QPALPQIVAVNVPPEDQDGSGDDSDNFSGSGTGALPDTLSRQTPSTWKDVWLLTATPTAPEPTSSNTETAFTSVLPAGEKPEEGEPVLHVEAEPGFTARDKEKEVTTRPRETVQLPITQRASTVRVTTAQAAVTSHPHGGMQPGLHETSAPTAPGQPDHQPPRVEGGGTSVIKEVVEDGTANQLPAGEGSGEQDFTFETSGENTAVAAVEPGLRNQPPVDEGATGASQSLLDRK
modifications: left off: a dimerising Fc or GST
notes: recombinant mouse Sdc1 ectodomain (amino acids 18-251), expressed in bacteria as GST fusion or 6×His-tagged protein
[1]
  IC50: 3 to 10 µM
[2]
  co-immunoprecipitation of αvβ3 integrin with human or mouse syndecan-1: competed
[3]
  co-precipitation of β3 and β5 integrin with human syndecan-1: displace the integrins
